The values that follow come from the supplement of paper PMC7125110.

Sequences and labels used below:
B1: glmS ribozyme (parent)
chain: AUAAAAGCGCCAGAACUACAGAAAUGUAGUUGACGAGGAGGAGGUUUAUCGAAUUUUCGGCGGAUGCCUCCAAA

Common to all, as to conditions: with glucosamine-6-phosphate
Data set [1] covers variants of B1. The data set is described as follows: self-cleavage kobs at 40 uM GlcN6P; higher = faster cleavage; RNA array. The essentials:
(§1)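 Tiles bearing barcoded ribozyme variants, transcribed in situ by E. coli RNA polymerase on sequenced MiSeq chips, were imaged over ~14 h at 37 °C using a hybridised Cy3 probe. Glucosamine-6-phosphate was supplied at 40 μM to 10 mM in HEPES/KCl/Mg(OAc)2 buffer. kobs came from one- or two-exponential decay fits to normalised per-tile medians, and weighted Michaelis–Menten fits then provided kcat and KM.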

The variants in data set [2] derive from B1. In words: self-cleavage kobs at 640 uM GlcN6P; higher = faster cleavage; RNA array. The procedure, abridged: as §1
The variants in data set [3] derive from B1. The data set is described as follows: self-cleavage kobs at 2500 uM GlcN6P; higher = faster cleavage; RNA array. The essentials: as §1
In data set [4] the parent is B1. In words: self-cleavage kobs at 160 uM GlcN6P; higher = faster cleavage; RNA array. The procedure, abridged: as §1
The variants in data set [5] derive from B1. In words: self-cleavage kobs at 10000 uM GlcN6P; higher = faster cleavage; RNA array. The essentials:
as §1

± gives the standard error. Fewer inactive variants are shown than the library holds.

Take A33C A36G G62U G66A: the “self-cleavage kobs at 40 uM GlcN6P” value with glucosamine-6-phosphate [1] was under 1e-05 s⁻¹. In addition, the “self-cleavage kobs at 640 uM GlcN6P” value with glucosamine-6-phosphate [2] is under 1e-05 s⁻¹. Also, the “self-cleavage kobs at 2500 uM GlcN6P” value in the data set with glucosamine-6-phosphate [3] was under 1e-05 s⁻¹.
Regarding G37C G38A, the “self-cleavage kobs at 40 uM GlcN6P” value in the data set with glucosamine-6-phosphate [1] is under 1e-05 s⁻¹. In the data set with glucosamine-6-phosphate [4], the “self-cleavage kobs at 160 uM GlcN6P” value was under 1e-05 s⁻¹. Also, the “self-cleavage kobs at 10000 uM GlcN6P” value with glucosamine-6-phosphate [5] was under 1e-05 s⁻¹.
With G7U G29C G43U G51A, the “self-cleavage kobs at 40 uM GlcN6P” value with glucosamine-6-phosphate [1] was under 1e-05 s⁻¹. In addition, the “self-cleavage kobs at 10000 uM GlcN6P” value in the data set with glucosamine-6-phosphate [5] was under 1e-05 s⁻¹.
Turning to G37A C50A G59A G66A, the “self-cleavage kobs at 40 uM GlcN6P” value with glucosamine-6-phosphate [1] was under 1e-05 s⁻¹.
For the variant G9C G51C, the “self-cleavage kobs at 40 uM GlcN6P” value with glucosamine-6-phosphate [1] is under 1e-05 s⁻¹. In addition, the “self-cleavage kobs at 160 uM GlcN6P” value in the data set with glucosamine-6-phosphate [4] is under 1e-05 s⁻¹. Also, the “self-cleavage kobs at 640 uM GlcN6P” value with glucosamine-6-phosphate [2] was under 1e-05 s⁻¹. The “self-cleavage kobs at 2500 uM GlcN6P” value in the data set with glucosamine-6-phosphate [3] was under 1e-05 s⁻¹. Also, in the data set with glucosamine-6-phosphate [5], the “self-cleavage kobs at 10000 uM GlcN6P” value was under 1e-05 s⁻¹.
Regarding G43A G51C U54C C71U, the “self-cleavage kobs at 40 uM GlcN6P” value with glucosamine-6-phosphate [1] is under 1e-05 s⁻¹. For the same variant, the “self-cleavage kobs at 640 uM GlcN6P” value in the data set with glucosamine-6-phosphate [2] was under 1e-05 s⁻¹. In addition, the “self-cleavage kobs at 2500 uM GlcN6P” value with glucosamine-6-phosphate [3] is under 1e-05 s⁻¹.
Take U47G C58U C70A: the “self-cleavage kobs at 40 uM GlcN6P” value in the data set with glucosamine-6-phosphate [1] came to 7.14e-05 ± 3e-05 s⁻¹. In the data set with glucosamine-6-phosphate [3], the “self-cleavage kobs at 2500 uM GlcN6P” value amounted to 9.31e-05 ± 2e-05 s⁻¹. Moreover, in the data set with glucosamine-6-phosphate [5], the “self-cleavage kobs at 10000 uM GlcN6P” value stood at 4.44e-05 ± 2.1e-05 s⁻¹.
For A14C C68G U69A, the “self-cleavage kobs at 40 uM GlcN6P” value with glucosamine-6-phosphate [1] is under 1e-05 s⁻¹.
Turning to U45A C61A, the “self-cleavage kobs at 40 uM GlcN6P” value with glucosamine-6-phosphate [1] was under 1e-05 s⁻¹. Also, the “self-cleavage kobs at 640 uM GlcN6P” value with glucosamine-6-phosphate [2] is under 1e-05 s⁻¹. The “self-cleavage kobs at 2500 uM GlcN6P” value with glucosamine-6-phosphate [3] was under 1e-05 s⁻¹. Besides, the “self-cleavage kobs at 10000 uM GlcN6P” value in the data set with glucosamine-6-phosphate [5] is under 1e-05 s⁻¹.
Regarding G13U U31A A39C C68U U69A, the “self-cleavage kobs at 40 uM GlcN6P” value with glucosamine-6-phosphate [1] was under 1e-05 s⁻¹. Moreover, the “self-cleavage kobs at 160 uM GlcN6P” value in the data set with glucosamine-6-phosphate [4] was under 1e-05 s⁻¹. Besides, the “self-cleavage kobs at 640 uM GlcN6P” value with glucosamine-6-phosphate [2] was under 1e-05 s⁻¹.
In the case of C10U G43C C50U C70U, the “self-cleavage kobs at 40 uM GlcN6P” value with glucosamine-6-phosphate [1] was under 1e-05 s⁻¹. Further, in the data set with glucosamine-6-phosphate [3], the “self-cleavage kobs at 2500 uM GlcN6P” value was under 1e-05 s⁻¹. Besides, in the data set with glucosamine-6-phosphate [5], the “self-cleavage kobs at 10000 uM GlcN6P” value was under 1e-05 s⁻¹.
Turning to C8G G60C, the “self-cleavage kobs at 40 uM GlcN6P” value with glucosamine-6-phosphate [1] is under 1e-05 s⁻¹. Further, in the data set with glucosamine-6-phosphate [4], the “self-cleavage kobs at 160 uM GlcN6P” value was under 1e-05 s⁻¹. In the data set with glucosamine-6-phosphate [5], the “self-cleavage kobs at 10000 uM GlcN6P” value is under 1e-05 s⁻¹.
Take G9C G13U G41U G63U: the “self-cleavage kobs at 40 uM GlcN6P” value with glucosamine-6-phosphate [1] is under 1e-05 s⁻¹. Moreover, the “self-cleavage kobs at 10000 uM GlcN6P” value with glucosamine-6-phosphate [5] is under 1e-05 s⁻¹.
On to A33C A52U, for which the “self-cleavage kobs at 40 uM GlcN6P” value in the data set with glucosamine-6-phosphate [1] was under 1e-05 s⁻¹. For the same variant, the “self-cleavage kobs at 640 uM GlcN6P” value in the data set with glucosamine-6-phosphate [2] was under 1e-05 s⁻¹. For the same variant, in the data set with glucosamine-6-phosphate [5], the “self-cleavage kobs at 10000 uM GlcN6P” value is under 1e-05 s⁻¹.
For the variant A33C G41A A42C G63C C67U, the “self-cleavage kobs at 40 uM GlcN6P” value with glucosamine-6-phosphate [1] was under 1e-05 s⁻¹. Further, the “self-cleavage kobs at 2500 uM GlcN6P” value in the data set with glucosamine-6-phosphate [3] is under 1e-05 s⁻¹. Besides, in the data set with glucosamine-6-phosphate [5], the “self-cleavage kobs at 10000 uM GlcN6P” value was under 1e-05 s⁻¹.
For the variant A14G A42G, the “self-cleavage kobs at 40 uM GlcN6P” value in the data set with glucosamine-6-phosphate [1] is 0.0027 ± 0.00037 s⁻¹. Further, in the data set with glucosamine-6-phosphate [4], the “self-cleavage kobs at 160 uM GlcN6P” value is 0.00391 ± 0.0011 s⁻¹. Besides, the “self-cleavage kobs at 640 uM GlcN6P” value in the data set with glucosamine-6-phosphate [2] stood at 0.00956 ± 0.0029 s⁻¹. In addition, the “self-cleavage kobs at 2500 uM GlcN6P” value with glucosamine-6-phosphate [3] is 0.0467 ± 0.022 s⁻¹. For the same variant, the “self-cleavage kobs at 10000 uM GlcN6P” value in the data set with glucosamine-6-phosphate [5] amounted to 0.0773 ± 0.025 s⁻¹.
As to A6G C10G G13U C16G U54G U57G, in the data set with glucosamine-6-phosphate [1], the “self-cleavage kobs at 40 uM GlcN6P” value is under 1e-05 s⁻¹. The “self-cleavage kobs at 10000 uM GlcN6P” value with glucosamine-6-phosphate [5] is under 1e-05 s⁻¹.
Turning to G35C U56G C58A U69A, the “self-cleavage kobs at 40 uM GlcN6P” value in the data set with glucosamine-6-phosphate [1] is under 1e-05 s⁻¹. Besides, in the data set with glucosamine-6-phosphate [4], the “self-cleavage kobs at 160 uM GlcN6P” value is under 1e-05 s⁻¹. Moreover, the “self-cleavage kobs at 2500 uM GlcN6P” value with glucosamine-6-phosphate [3] is under 1e-05 s⁻¹.
Turning to G7A G35C G59A C67G, the “self-cleavage kobs at 40 uM GlcN6P” value with glucosamine-6-phosphate [1] is under 1e-05 s⁻¹. Besides, the “self-cleavage kobs at 160 uM GlcN6P” value with glucosamine-6-phosphate [4] is under 1e-05 s⁻¹. For the same variant, in the data set with glucosamine-6-phosphate [2], the “self-cleavage kobs at 640 uM GlcN6P” value was under 1e-05 s⁻¹. Also, the “self-cleavage kobs at 2500 uM GlcN6P” value in the data set with glucosamine-6-phosphate [3] was under 1e-05 s⁻¹.
In the case of A6G A52U C61G, in the data set with glucosamine-6-phosphate [1], the “self-cleavage kobs at 40 uM GlcN6P” value is under 1e-05 s⁻¹.
Regarding U31A G62C, the “self-cleavage kobs at 40 uM GlcN6P” value with glucosamine-6-phosphate [1] is under 1e-05 s⁻¹. In the data set with glucosamine-6-phosphate [4], the “self-cleavage kobs at 160 uM GlcN6P” value was under 1e-05 s⁻¹. Also, the “self-cleavage kobs at 2500 uM GlcN6P” value in the data set with glucosamine-6-phosphate [3] was under 1e-05 s⁻¹. The “self-cleavage kobs at 10000 uM GlcN6P” value with glucosamine-6-phosphate [5] was under 1e-05 s⁻¹.
G13A U47C C58U C71U: the “self-cleavage kobs at 40 uM GlcN6P” value with glucosamine-6-phosphate [1] was under 1e-05 s⁻¹. Besides, in the data set with glucosamine-6-phosphate [5], the “self-cleavage kobs at 10000 uM GlcN6P” value was 6.08e-05 ± 1.3e-05 s⁻¹.
